Test results reported in patent US20250228937A1, “MEDICAMENT FOR TREATMENT AND/OR PREVENTION OF CANCER” (TORAY INDUSTRIES, INC., priority 2021, published 2025).
Numbering of substitutions follows the chain as printed.

T1: human CAPRIN-1 protein expressed on cell membrane surfaces of human cancer cells (human, UniProt Q14444 2-709)
T1 construct: whole, on cells; only a portion of CAPRIN-1 is said to be on the membrane surface
T1 sequence (looked up): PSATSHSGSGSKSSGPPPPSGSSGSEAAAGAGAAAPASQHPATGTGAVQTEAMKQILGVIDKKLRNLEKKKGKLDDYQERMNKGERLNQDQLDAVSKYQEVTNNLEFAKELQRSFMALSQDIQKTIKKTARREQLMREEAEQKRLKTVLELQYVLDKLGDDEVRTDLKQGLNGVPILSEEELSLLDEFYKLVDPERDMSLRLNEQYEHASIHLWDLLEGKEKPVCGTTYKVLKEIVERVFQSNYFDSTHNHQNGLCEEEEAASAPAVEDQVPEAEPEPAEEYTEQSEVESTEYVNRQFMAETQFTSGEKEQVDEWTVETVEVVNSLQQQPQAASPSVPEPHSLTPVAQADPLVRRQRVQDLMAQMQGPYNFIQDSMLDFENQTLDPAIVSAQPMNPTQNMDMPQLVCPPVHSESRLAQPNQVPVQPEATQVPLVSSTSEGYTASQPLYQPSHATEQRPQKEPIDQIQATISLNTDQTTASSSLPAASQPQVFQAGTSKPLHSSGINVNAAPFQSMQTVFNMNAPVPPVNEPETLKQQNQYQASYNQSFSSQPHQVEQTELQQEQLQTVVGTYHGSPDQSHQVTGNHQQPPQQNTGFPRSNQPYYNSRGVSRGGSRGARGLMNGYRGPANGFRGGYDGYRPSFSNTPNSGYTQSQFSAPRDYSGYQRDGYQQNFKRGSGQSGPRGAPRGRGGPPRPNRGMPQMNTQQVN

B1: anti-CAPRIN-1 antibody (o) (antibody, V domains shown)
VH: EVQLHQFGAELVKPGASVKISCKASGYTFTDYNMDWVKQSHGKSLEWIGDINPNYDSTSYNQKFKGKATLTVDKSSSTAYMELRSLTSEDTAVYYCARSRSYDYEGFAYWGQGTLVTVSA
VL: DIQMTQSPASLSASVGETVTITCRASGNIHNYLAWYQQKQGKSPQLLVYNAKTLADGVPSRFSGSGSGTQYSLKINSLQPEDFGSYYCQHFWSTLTFGAGTKLELKR
B2: anti-CAPRIN-1 antibody (af) (antibody, V domains shown)
VH: EVQLVESGGGLVQPGGSLRLSCAASGFSLSSHSLGWVRQAPGKGLEWIGDIRSGGSAYYANWAKGRFTISRDNSKNTLYLQMNSLRAEDTAVYYCTRTNGPSDLTNRLDLWGQGTLVTVSS
VL: QVLTQSPSSLSASVGDRVTINCQASQSLYNNENLAWFQQKPGKVPKRLIYGASTLASGVSSRFSGSGSGTEFTLTISSLQCEDFAIYYCLGEFSCGSADCFAFGGGTKVEIK
B3: anti-CAPRIN-1 antibody (ah) (antibody, V domains shown)
VH: B2 VH
VL: EQVLTQSPSSLSASVGDRVTINCQASQSLYNNENLAWFQQKPGKVPKRLIYGASTLASGVSSRFSGSGSGTEFTLTISNLQPEDFAIYYCLGEFSCGSADCFAFGGGTKVEIK
B4: anti-CAPRIN-1 antibody (ag) (antibody, V domains shown)
VH: B2 VH with Y94F
VL: B2 VL
B5: anti-CAPRIN-1 antibody (b) (antibody, V domains shown)
VH: B2 VH with V2Q, Q3S
VL: B2 VL
B6: anti-CAPRIN-1 antibody (z) (antibody, V domains shown)
VH: GPDLVKPGASVKISCKASGYSFTAYYMHWVKQSHGKSLEWIGRVNPNNGGTTYNQKFKGKAILTVDKSSSTAYMELRSLTFEDSAVYYCARRIYYGYFDYWGQGTTVTVSS
VL: AFFAVSLGQRATISCKASQSVDYDGDSYMNWYQQKPGQPPKLLIYVASNLESGVPARFSGSGSGTDFTLNIHPVEEEDAATYYCQQSNEDPYTFGGGTKLEIKQ
B7: anti-CAPRIN-1 antibody (e) (antibody, V domains shown)
VH: AVTLDESGGGLQTPGGALSLVCKASGFTFSGYDMLWVRQAPGKGLEWVAGIGSTGGGTDYGAAVKGRATISRDNGQSTVRLQLNNLRAEDTATYYCAKVAGGCNSGYCRDSPGSIDAWGHGTEVIVS
VL: AVTQQPASVSANPGETVKITCSGGGSRNYYGWYQQKSPGSVPVTVIYYDDQRPSNIPSRFSGALSGSTSTLTITGVQADDEAVYFCGSADSNTYEGSFGAGTTLTVL
B8: anti-CAPRIN-1 antibody (j) (antibody, V domains shown)
VH: DAELVKPGASVKISCKASGYTFTDHSIHWVQQKPEQGLEWIGYISPGNGNIKYNEKFKGKATLTADKSSSTAYMQLNSLTSEDSAVYFCKRSLGRGGPYYFDYWGQGTTVTVSS
VL: DIVLTQAAPSLPVTPGESVSISCRSSKSLLHSNGNTYLYWFLQRPGQSPQLLIYRMSNLASGVPDRFSGSGSGTAFTLRISRVEAEDVGVYYCMQHREYPVTFGSGPN
B9: anti-CAPRIN-1 antibody (i) (antibody, V domains shown)
VH: GAELVRSGASVKMSCKASGYSFTDYNMYWVKQTPGQGLEWIGYIYPGNGGTNYNQKFKGKATLTADTSSSTAYMQISSLTSEDSAVYFCARDYDDGGYAMDYWGQGTTVTVSS
VL: DIQMTQSPASLSASVGETVTITCRASGNIHNYLTWYQQKQGKSPQLLVYNAKTLADGVPSRFSGSGSGTQYSLKINRLQPEDFGSYYCQHFWNIPWTFGGGTKLNSR
B10: anti-CAPRIN-1 antibody (d) (antibody, V domains shown)
VH: QSLEESGGDLVKPGASLTLTCTASGFSFSGSYYMSWVRQAPGKGLEWIAYIYIGDGVTAYANWAKGRFTISKASSTTVTLQMTSLTAADTATYFCARGNKLWGPGTLVTVSS
VL: DVVMTQTPASVEAAVGGTVTIKCQASQSISSYLAWYQQKPGQPPKRLIYDASNLDSGVPSRFKGSGSGTDFTITISDLECADAATYYCQCTAVSSATIYGNAFGGGTEVVVK

What follows are binders tested against T1, human CAPRIN-1 protein expressed on … (assay: flow cytometry on cancer cells expressing CAPRIN-1).

Binding result, binds:
B1
B2
B3
B4
B5
B6
B7
B8
B9
B10
